Measured values published in patent US20020164620.

Assays:
[1] = molecular target: T1, SCC1-myc (in vitro translated human SCC1 with myc tag) (UniProt O60216)
T1 sequence: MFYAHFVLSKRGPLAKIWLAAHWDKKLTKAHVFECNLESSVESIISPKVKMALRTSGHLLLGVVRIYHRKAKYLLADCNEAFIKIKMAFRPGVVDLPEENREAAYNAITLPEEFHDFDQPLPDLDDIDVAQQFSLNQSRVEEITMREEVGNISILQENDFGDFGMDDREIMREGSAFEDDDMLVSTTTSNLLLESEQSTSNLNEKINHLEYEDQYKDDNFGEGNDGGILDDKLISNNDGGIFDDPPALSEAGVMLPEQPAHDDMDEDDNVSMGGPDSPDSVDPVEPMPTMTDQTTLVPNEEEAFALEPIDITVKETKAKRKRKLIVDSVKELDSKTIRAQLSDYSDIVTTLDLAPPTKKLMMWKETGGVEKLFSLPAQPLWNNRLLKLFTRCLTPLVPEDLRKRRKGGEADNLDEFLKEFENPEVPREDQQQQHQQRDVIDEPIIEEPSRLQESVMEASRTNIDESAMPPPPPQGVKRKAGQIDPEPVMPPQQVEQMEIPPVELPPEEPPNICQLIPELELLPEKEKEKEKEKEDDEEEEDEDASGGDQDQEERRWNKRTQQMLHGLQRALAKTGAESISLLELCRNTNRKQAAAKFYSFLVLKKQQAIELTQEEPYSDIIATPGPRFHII

[2] = test system: separase-myc (in vitro translated separase construct with one myc epitope at its C-terminus)
[3] = molecular target: T2, recombinant human securin, wildtype, expressed in E. coli (UniProt O95997)
T2 sequence: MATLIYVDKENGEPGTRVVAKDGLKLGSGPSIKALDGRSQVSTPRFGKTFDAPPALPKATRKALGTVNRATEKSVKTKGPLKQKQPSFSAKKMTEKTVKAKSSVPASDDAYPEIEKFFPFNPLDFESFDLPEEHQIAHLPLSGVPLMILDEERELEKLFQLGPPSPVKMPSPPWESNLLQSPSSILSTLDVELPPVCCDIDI

[4] = test system: T3, Bio-SVEQGR-amk
T3 sequence: SVEQGR

[5] = molecular target: T4, destruction box deleted form of securin (UniProt O95997)
T4 sequence: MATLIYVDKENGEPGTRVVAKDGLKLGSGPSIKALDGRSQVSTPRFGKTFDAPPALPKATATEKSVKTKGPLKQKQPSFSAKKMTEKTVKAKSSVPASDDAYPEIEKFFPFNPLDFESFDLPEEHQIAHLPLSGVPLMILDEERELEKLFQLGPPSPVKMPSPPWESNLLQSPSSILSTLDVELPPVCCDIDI

[6] = test system: T5, Bio-SVEQGR-cmk
T5 sequence: SVEQGR

Substance | cleavage of SCC1-myc (anti-myc immunoblot, FIG. 6B) [1] | cleavage of in vitro translated separase-myc (anti-myc immunoblot, FIG. 5) [2] | cleavage of SCC1-myc by separase (anti-myc immunoblot) [3] | cleavage of SCC1-myc by separase (anti-myc immunoblot) [4] | cleavage of SCC1-myc by separase (anti-myc immunoblot, FIG. 4C lane 2i) [4] | cleavage of SCC1-myc by separase (anti-myc immunoblot, FIG. 4C lane 3i) [4] | cleavage of SCC1-myc by separase (anti-myc immunoblot) [5] | cleavage of SCC1-myc by separase (anti-myc immunoblot) [6] | cleavage of SCC1-myc (anti-myc immunoblot) [1]
N-terminally FLAG-tagged full length human separase expressed in HeLa cells, anti-FLAG immunoprecipitate activated in mitotic Xenopus egg extract | ectopically expressed separase is able to cleave human SCC1 | – | – | – | – | – | – | – | –
cleaved form of human separase (separase immunoprecipitate from nocodazole-arrested HeLa cells, activated in mitotic Xenopus egg extract) | – | in vitro translated separase was cleaved when it was incubated with active separase obtained by incubation of separase immunoprecipitates in mitotic Xenopus egg extracts | no cleavage of SCC1 was detected | both inhibitors are able to block the ability of separase to cleave SCC1 | separase was unable to cleave SCC1 | This treatment inhibited SCC1 cleavage by separase | Identical results were obtained with two different forms of securin, the wildtype protein (WT-securin) and a form that can not be destroyed by ubiquitin-dependent proteolysis (DB-securin | both inhibitors are able to block the ability of separase to cleave SCC1 | it is the cleaved form of separase that is the active protease which cleaves SCC1, unless it is inhibited by the rebinding of securin
